The results in this text go back to patent US20150276762A1 (NVH MEDICINAL, published 2015).

Assay [1] concerns the target plasma von Willebrand factor of type 1 von Willebrand disease patients (human) (UniProt P04275). Description: ELISA, coated at 2 µg/ml, plasma of Patient 3 (Type 1).
Assay [2] shares this target. Description: ELISA, coated at 2 µg/ml, plasma of Patient 4 (Type 1).
The target is the same in assay [3]. As to the kind of experiment: ELISA, coated at 2 µg/ml, plasma of Patient 5 (Type 1). For orientation: An ELISA detects its analyte on a solid surface through an enzyme-linked reagent.
Assay [4] deals with plasma von Willebrand factor of type 2 von Willebrand disease patients (Table I) (human) (UniProt P04275). As to the kind of experiment: ELISA, coated at 2 µg/ml, plasma of Patient 6 (Type 2).
Assay [5] shares this target. Description: ELISA, coated at 2 µg/ml, plasma of Patient 7 (Type 2).
The target is the same in assay [6]. Description: ELISA, coated at 2 µg/ml, plasma of Patient 8 (Type 2).
Assay [7] deals with plasma von Willebrand factor of type 1 von Willebrand disease patients (human) (UniProt P04275). Description: ELISA, coated at 2 µg/ml, plasma of Patient 3 (Type 1); collagen-binding activity over vWF antigen.
Assay [8] has the same target. Description: ELISA, coated at 2 µg/ml, plasma of Patient 4 (Type 1); collagen-binding activity over vWF antigen.
The target is the same in assay [9]. As to the kind of experiment: ELISA, coated at 2 µg/ml, plasma of Patient 5 (Type 1); collagen-binding activity over vWF antigen.
The target of assay [10] is plasma von Willebrand factor of type 2 von Willebrand disease patients (Table I) (human) (UniProt P04275). Description: ELISA, coated at 2 µg/ml, plasma of Patient 6 (Type 2); collagen-binding activity over vWF antigen.
Assay [11] shares this target. As to the kind of experiment: ELISA, coated at 2 µg/ml, plasma of Patient 7 (Type 2); collagen-binding activity over vWF antigen.
The target is the same in assay [12]. As to the kind of experiment: ELISA, coated at 2 µg/ml, plasma of Patient 8 (Type 2); collagen-binding activity over vWF antigen.
The target in assay [13] is T1, plasma von Willebrand factor of healthy patients / control (reference) plasma (human, UniProt P04275 764-2813).
T1 construct: Unpurified, in diluted plasma; The read-out also depends on the amount of vWF in the plasma; also called Normal; Controls
Description: ELISA, coated at 2 µg/ml, plasma of Patient 1 (Normal); collagen-binding activity over vWF antigen. On the procedure: (§1) To that end, 100 μl of a solution containing the polypeptide at 2 or 10 μg/ml in phosphate buffer or any other suitable buffer is added in each well and incubated at 22° C. for 18 to 20 hours. After three washes with 200 μl of PBS-0.05% Tween, 200 μl of 1% BSA in phosphate buffer solution (Euromedex, 0.45 μm filter) is added in each well and incubated for 2 hours at room temperature (22° C.). After three washes with 200 μl of PBS-0.05% Tween, 100 μl of various concentrations (expressed in IU/dl) of purified von Willebrand factor (Wilfactin, 100 IU/ml, LFB) and/or of patient plasma diluted in phosphate buffer or any other suitable buffer is incubated for 1.5 hours at room temperature (22° C.). After three new washes, 100 μl of a solution containing a primary anti-vWF antibody coupled with horseradish peroxidase (rabbit anti-human vWF/HRP, DAKO) diluted to 1/8000 in phosphate buffer or any other suitable buffer is incubated for 1 hour at 22° C. and then washed 4 times as described above. 125 μl of tetramethylbenzidine solution (TMB, Sigma) as peroxidase substrate is added and then incubation is carried out in the dark for 10 to a maximum of 45 minutes. The reaction is quenched by adding 125 μl of 2 N HCl (Sigma). Absorbance is quickly measured at 450 nm in a spectrophotometer (Wallac Victor 3). […]

Assay [14] has as its target T1, plasma von Willebrand factor of healthy …. As to the kind of experiment: ELISA, coated at 2 µg/ml, plasma of Patient 2 (Normal); collagen-binding activity over vWF antigen. The protocol:
as §1

For assay [15], the target named is T2, plasma von Willebrand factor of a patient suspected of having anti-vWF antibody (mimicking type III) (human, UniProt P04275 764-2813, limits assumed).
T2 construct: Almost no vWF antigen in this plasma; also called Patient 9; vWF activity
As to the kind of experiment: ELISA, coated at 2 µg/ml, plasma of Patient 9 (vWF activity); collagen-binding activity over vWF antigen. On the procedure: as §1

In the case of “type III collagen (BD Biosciences), used as a reference (from UniProt P02461 154-1221)”, the Mean CB % in [1] came out at 37%; in assay [2], 24%; in [3], 17%; in [4] it was 17%; in [5], 19%; in assay [6], 24%. The CB/Ag ratio in [7] turned out to be 0.82; in assay [8], 1.41; in [9], 0.77; in [10], 0.74; in [11] it was 0.48; in assay [12] it was 0.89.

B1: type III collagen (BD Biosciences), used as a reference (other, human, UniProt P02461 154-1221, looked up)
chain: QYDSYDVKSGVAVGGLAGYPGPAGPPGPPGPPGTSGHPGSPGSPGYQGPPGEPGQAGPSGPPGPPGAIGPSGPAGKDGESGRPGRPGERGLPGPPGIKGPAGIPGFPGMKGHRGFDGRNGEKGETGAPGLKGENGLPGENGAPGPMGPRGAPGERGRPGLPGAAGARGNDGARGSDGQPGPPGPPGTAGFPGSPGAKGEVGPAGSPGSNGAPGQRGEPGPQGHAGAQGPPGPPGINGSPGGKGEMGPAGIPGAPGLMGARGPPGPAGANGAPGLRGGAGEPGKNGAKGEPGPRGERGEAGIPGVPGAKGEDGKDGSPGEPGANGLPGAAGERGAPGFRGPAGPNGIPGEKGPAGERGAPGPAGPRGAAGEPGRDGVPGGPGMRGMPGSPGGPGSDGKPGPPGSQGESGRPGPPGPSGPRGQPGVMGFPGPKGNDGAPGKNGERGGPGGPGPQGPPGKNGETGPQGPPGPTGPGGDKGDTGPPGPQGLQGLPGTGGPPGENGKPGEPGPKGDAGAPGAPGGKGDAGAPGERGPPGLAGAPGLRGGAGPPGPEGGKGAAGPPGPPGAAGTPGLQGMPGERGGLGSPGPKGDKGEPGGPGADGVPGKDGPRGPTGPIGPPGPAGQPGDKGEGGAPGLPGIAGPRGSPGERGETGPPGPAGFPGAPGQNGEPGGKGERGAPGEKGEGGPPGVAGPPGGSGPAGPPGPQGVKGERGSPGGPGAAGFPGARGLPGPPGSNGNPGPPGPSGSPGKDGPPGPAGNTGAPGSPGVSGPKGDAGQPGEKGSPGAQGPPGAPGPLGIAGITGARGLAGPPGMPGPRGSPGPQGVKGESGKPGANGLSGERGPPGPQGLPGLAGTAGEPGRDGNPGSDGLPGRDGSPGGKGDRGENGSPGAPGAPGHPGPPGPVGPAGKSGDRGESGPAGPAGAPGPAGSRGAPGPQGPRGDKGETGERGAAGIKGHRGFPGNPGAPGSPGPAGQQGAIGSPGPAGPRGPVGPSGPPGKDGTSGHPGPIGPPGPRGNRGERGSEGSPGHPGQPGPPGPPGAPGPCCGGVGAAAIAGIGGEKAGGFAPYYG
notes: also called native type III collagen
Turning to B1, the values for the CB/Ag ratio in assay [13], in [14] and in [15] were 1.4, 1.22 and 0, respectively.
